Results as given in PMC4512762.

Assays:
[1] = target: Monoglycosylated IgG1-Fc (high mannose glycan at a single CH2 domain of the dimer) (human); test: BLI
[2] = target: Diglycosylated IgG1-Fc (high mannose glycans at both CH2 domains of the dimer) (human); test: BLI

Fc γ receptor IIIA, soluble domain of the high affinity V158 polymorph
Kd [1]: 100 nM | Kd [2]: 32 nM
